Measurements as given in patent publication US20260210971A1 (Pfizer, published 2026).

Target: T1, endogenous TL1A of stimulated human peripheral blood (human, UniProt O95150 72-251, limits assumed)
T1 construct: also called endogenous soluble TL1A
T1 sequence (looked up): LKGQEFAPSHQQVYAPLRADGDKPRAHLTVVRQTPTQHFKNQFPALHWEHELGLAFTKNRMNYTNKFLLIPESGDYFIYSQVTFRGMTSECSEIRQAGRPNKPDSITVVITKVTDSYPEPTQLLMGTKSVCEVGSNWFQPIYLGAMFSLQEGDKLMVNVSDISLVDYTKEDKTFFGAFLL
Assay: MSD ligand-binding assay of 1D1 1.31-free soluble TL1A in plasma of human whole blood stimulated 24 h with immune complex + IL-12/IL-18
Method: After 24 hours of culture at 37° C., 100 μL of 5% bovine serum albumin in PBS were added and mixed well with the 200 μL of blood cultures to dilute plasma (dilution factor: 1.5). […] IFNγ was measured using the MSD human IFNγ kit (Catalog No. K151AEB-1) following the manufacturer's instructions. […] The following day, plates were washed three times with 150 μL per well of 0.1% Tween 20 in PBS, followed with 150 μL per well of blocking solution (5% bovine serum albumin in PBS), then the plates were incubated at room temperature for 1 hour with orbital shaking (1500 rpm). After the plates were washed as mentioned above, diluted plasma samples were added and incubated at 4° C. overnight. […] TL1A standard curves were generated using recombinant human soluble TL1A. Plates were read following the manufacturer's procedure, standard curve and plasma concentration of the cytokine were calculated with the MSD software.

B1: 1D1 1.31 (antibody, human IgG1, kappa, V domains shown)
VH: QVQLVQSGAEVKKPGASVKVSCKASGYDFTYYGISWVRQAPGQGLEWMGWISTYNGNTHYARMLQGRVTMTTDTSTRTAYMELRSLRSDDTAVYYCARENYYGSGAYRGGMDVWGQGTTVTVSS
VL: EIVLTQSPATLSLSPGERATLSCRASQSVSSYLAWYQQKPGQAPRLLIYDASNRATGIPARFSGSGSGTDFTLTISSLEPEDFAVYYCQQRSNWPWTFGQGTKVEIKR
notes: Full length human IgG1 with effector function-null mutations in the Fc, produced in CHO cells; Used biotinylated for staining of monocytes
- IC50 (read off the curve): ~5 pM
